Measured values from patent US20030232325A1 (MOUNT SINAI SCHOOL OF MEDICINE OF NEW YORK UNIVERSITY, published 2003).

Tests used:
[1] = target: T1, rabies virus M protein (form used not stated; discussion of Example 9, data not shown) (rabies virus, UniProt P16287 1-202); assay: far-western blot presumably; data not shown
T1 sequence: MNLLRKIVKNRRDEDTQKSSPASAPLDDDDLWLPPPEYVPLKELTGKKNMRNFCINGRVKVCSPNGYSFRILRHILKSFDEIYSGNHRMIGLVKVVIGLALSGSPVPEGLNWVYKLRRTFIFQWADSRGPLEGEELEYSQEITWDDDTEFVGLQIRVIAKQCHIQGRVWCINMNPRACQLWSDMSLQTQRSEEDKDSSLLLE

[2] = target: T2, NS1-BP fragment (amino acids 347 to 619) expressed from the HeLa cDNA library plasmid p59-1 (activation … (human, UniProt Q9Y6Y0 347-611)); assay: yeast interaction trap, lacZ reporter
T2 sequence: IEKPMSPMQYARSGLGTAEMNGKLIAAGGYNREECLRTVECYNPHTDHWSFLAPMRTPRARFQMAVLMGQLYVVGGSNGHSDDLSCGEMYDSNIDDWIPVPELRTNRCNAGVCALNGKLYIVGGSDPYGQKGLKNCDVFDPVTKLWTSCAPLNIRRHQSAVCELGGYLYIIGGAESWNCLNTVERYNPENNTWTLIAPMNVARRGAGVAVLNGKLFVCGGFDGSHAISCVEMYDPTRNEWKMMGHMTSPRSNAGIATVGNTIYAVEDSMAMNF

[3] = target: T3, NS1I-1 fragment expressed from the HeLa cDNA library plasmid pK5 (activation domain fusion) (human, UniProt P51659 266-736); assay: yeast interaction trap, lacZ reporter; pRFHM1 as control bait
T3 sequence: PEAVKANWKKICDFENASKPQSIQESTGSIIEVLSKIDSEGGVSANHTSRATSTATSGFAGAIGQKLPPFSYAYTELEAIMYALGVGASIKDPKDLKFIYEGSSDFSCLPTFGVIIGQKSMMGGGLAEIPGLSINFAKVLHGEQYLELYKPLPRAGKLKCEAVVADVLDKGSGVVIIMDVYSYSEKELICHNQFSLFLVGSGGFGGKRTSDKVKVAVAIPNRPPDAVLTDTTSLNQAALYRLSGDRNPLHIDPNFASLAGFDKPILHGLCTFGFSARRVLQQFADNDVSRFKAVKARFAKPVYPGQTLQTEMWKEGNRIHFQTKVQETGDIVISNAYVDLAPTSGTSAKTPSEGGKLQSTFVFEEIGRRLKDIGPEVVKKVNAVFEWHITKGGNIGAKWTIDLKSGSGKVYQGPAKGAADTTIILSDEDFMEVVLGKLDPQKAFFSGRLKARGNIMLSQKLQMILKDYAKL

TGLPTPWTVRYSKSKKREYFFNPETKHSQWEEPEG (other, domain: WW) [WW domain from ESS 1]: no binding [1].

B1: LexA-bicoid fusion protein (encoded by pRFHM1) (other)
chain: AQPPPDQNFYHHPLPHTHTHPHPHSHPHPHSHPHPHHQHPQLQLPPQFRNPFDLLFDERTGAINYNYIRPYLPNQMPKPEELPDSLVMRRPRRTRTTFTSSQIAELEQHFLQGRYLTAPRLADLSAKLALGTAQVKIWFKNRRRRHKIQSDQHKDQSYE
notes: also called LexA fused to a transcriptionally inert fragment of the Drosophila melanogaster bicoid protein
B1: no binding [2]; no binding [3].
